These results are taken from patent US7446182.

The target of assay [1] is Bacillus anthracis protective antigen (PA), 83 kDa polypeptide (Bacillus anthracis) (UniProt P13423).
The target is the same in assay [2]. This is another data set of the same source.

Sequence of Bacillus anthracis protective antigen (PA), 83 kDa polypeptide (Bacillus anthracis) (P13423 30-764 limits assumed): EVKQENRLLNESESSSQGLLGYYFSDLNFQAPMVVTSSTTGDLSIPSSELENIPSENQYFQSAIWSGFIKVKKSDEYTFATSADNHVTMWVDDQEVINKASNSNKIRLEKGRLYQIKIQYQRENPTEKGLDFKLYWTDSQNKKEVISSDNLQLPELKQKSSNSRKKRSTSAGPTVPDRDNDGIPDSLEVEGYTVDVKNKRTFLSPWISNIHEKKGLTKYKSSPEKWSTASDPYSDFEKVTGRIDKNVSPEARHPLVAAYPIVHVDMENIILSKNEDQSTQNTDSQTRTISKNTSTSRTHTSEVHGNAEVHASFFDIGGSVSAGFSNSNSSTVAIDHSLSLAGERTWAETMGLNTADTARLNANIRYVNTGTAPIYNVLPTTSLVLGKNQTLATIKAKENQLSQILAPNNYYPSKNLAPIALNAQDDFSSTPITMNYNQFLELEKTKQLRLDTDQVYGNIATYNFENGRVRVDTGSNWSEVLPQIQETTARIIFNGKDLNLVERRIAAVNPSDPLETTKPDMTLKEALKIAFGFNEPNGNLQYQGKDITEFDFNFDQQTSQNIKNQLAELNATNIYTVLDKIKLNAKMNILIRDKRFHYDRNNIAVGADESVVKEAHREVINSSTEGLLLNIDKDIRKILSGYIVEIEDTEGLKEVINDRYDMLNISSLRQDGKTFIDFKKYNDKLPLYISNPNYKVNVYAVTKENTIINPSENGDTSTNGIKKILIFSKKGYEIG

Take 14B7 scFv with the mutation L97Leu:Ala: in assay [1], the Kd amounted to 0.063 µM, the koff was found to be 0.019 s⁻¹ and the kon was determined as 300000 M⁻¹ s⁻¹. The fold higher KD than 14B7 in assay [2] was more than 5 fold.
